T1: soluble CD22-Fc (R&D Systems) (UniProt P20273 20-687)
T1 construct: Bought reagent used to stain CD22 CARs; not shown: Fc part; detected with anti-human IgG Fc-gamma secondary
T1 sequence (looked up): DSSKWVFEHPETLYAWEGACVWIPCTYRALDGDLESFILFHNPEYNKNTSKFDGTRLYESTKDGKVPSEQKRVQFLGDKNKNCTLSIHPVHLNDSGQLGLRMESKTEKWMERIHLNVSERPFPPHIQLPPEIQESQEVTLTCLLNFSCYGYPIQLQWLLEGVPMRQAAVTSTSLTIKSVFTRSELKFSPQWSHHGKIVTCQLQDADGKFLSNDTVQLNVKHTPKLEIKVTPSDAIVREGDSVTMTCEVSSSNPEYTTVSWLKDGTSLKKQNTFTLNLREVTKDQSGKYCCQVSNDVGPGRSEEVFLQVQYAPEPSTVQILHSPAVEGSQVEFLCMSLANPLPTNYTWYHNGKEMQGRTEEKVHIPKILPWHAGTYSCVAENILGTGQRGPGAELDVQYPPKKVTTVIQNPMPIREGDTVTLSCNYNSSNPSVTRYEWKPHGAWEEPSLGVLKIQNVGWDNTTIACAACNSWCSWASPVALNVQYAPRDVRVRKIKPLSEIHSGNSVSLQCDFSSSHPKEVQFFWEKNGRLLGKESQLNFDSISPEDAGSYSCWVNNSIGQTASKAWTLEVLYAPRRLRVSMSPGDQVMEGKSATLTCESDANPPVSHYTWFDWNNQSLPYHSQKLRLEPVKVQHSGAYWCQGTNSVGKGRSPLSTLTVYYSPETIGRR

B1: tandem CD19/CD22 CAR construct 174 (other)
chain: EIVMTQSPATLSLSPGERATLSCRASQDISKYLNWYQQKPGQAPRLLIYHTSRLHSGIPARFSGSGSGTDYTLTISSLQPEDFAVYFCQQGNTLPYTFGQGTKLEIKGGGGSGGGGSGGGGSQVQLQESGPGLVKPSETLSLTCTVSGVSLPDYGVSWIRQPPGKGLEWIGVIWGSETTYYQSSLKSRVTISKDNSKNQVSLKLSSVTAADTAVYYCAKHYYYGGSYAMDYWGQGTLVTVSSGGGGSEVQLQQSGPGLVKPSQTLSLTCAISGDSMLSNSDTWNWIRQSPSRGLEWLGRTYHRSTWYDDYASSVRGRVSINVDTSKNQYSLQLNAVTPEDTGVYYCARVRLQDGNSWSDAFDVWGQGTMVTVSSGGGGSQSALTQPASASGSPGQSVTISCTGTSSDVGGYNYVSWYQQHPGKAPKLMIYDVSNRPSGVSNRFSGSKSGNTASLTISGLQAEDEADYYCSSYTSSSTLYVFGTGTQLTVLTTTPAPRPPTPAPTIASQPLSLRPEACRPAAGGAVHTRGLDFACDIYIWAPLAGTCGVLLLSLVITLYCKRGRKKLLYIFKQPFMRPVQTTQEEDGCSCRFPEEEEGGCELRVKFSRSADAPAYQQGQNQLYNELNLGRREEYDVLDKRRGRDPEMGGKPRRKNPQEGLYNELQKDKMAEAYSEIGMKGERRRGKGHDGLYQGLSTATKDTYDALHMQALPPR
notes: Distal anti-CD19 scFv, GGGGS, proximal anti-CD22 scFv H/L with short linker; leader 1-21 left out; also called CG#c174; c174
B2: control anti-CD22 CAR CAR22-65 (other)
chain: EVQLQQSGPGLVKPSQTLSLTCAISGDSMLSNSDTWNWIRQSPSRGLEWLGRTYHRSTWYDDYASSVRGRVSINVDTSKNQYSLQLNAVTPEDTGVYYCARVRLQDGNSWSDAFDVWGQGTMVTVSSGGGGSGGGGSGGGGSQSALTQPASASGSPGQSVTISCTGTSSDVGGYNYVSWYQQHPGKAPKLMIYDVSNRPSGVSNRFSGSKSGNTASLTISGLQAEDEADYYCSSYTSSSTLYVFGTGTQLTVL
notes: also called CAR22-65 Long; not shown: hinge, transmembrane, 4-1BB and CD3zeta parts of the CAR
B3: tandem CD22/CD19 CAR construct 181 (other)
chain: EVQLQQSGPGLVKPSQTLSLTCAISGDSMLSNSDTWNWIRQSPSRGLEWLGRTYHRSTWYDDYASSVRGRVSINVDTSKNQYSLQLNAVTPEDTGVYYCARVRLQDGNSWSDAFDVWGQGTMVTVSSGGGGSGGGGSGGGGSQSALTQPASASGSPGQSVTISCTGTSSDVGGYNYVSWYQQHPGKAPKLMIYDVSNRPSGVSNRFSGSKSGNTASLTISGLQAEDEADYYCSSYTSSSTLYVFGTGTQLTVLLAEAAAKEIVMTQSPATLSLSPGERATLSCRASQDISKYLNWYQQKPGQAPRLLIYHTSRLHSGIPARFSGSGSGTDYTLTISSLQPEDFAVYFCQQGNTLPYTFGQGTKLEIKGGGGSGGGGSGGGGSQVQLQESGPGLVKPSETLSLTCTVSGVSLPDYGVSWIRQPPGKGLEWIGVIWGSETTYYQSSLKSRVTISKDNSKNQVSLKLSSVTAADTAVYYCAKHYYYGGSYAMDYWGQGTLVTVSSTTTPAPRPPTPAPTIASQPLSLRPEACRPAAGGAVHTRGLDFACDIYIWAPLAGTCGVLLLSLVITLYCKRGRKKLLYIFKQPFMRPVQTTQEEDGCSCRFPEEEEGGCELRVKFSRSADAPAYQQGQNQLYNELNLGRREEYDVLDKRRGRDPEMGGKPRRKNPQEGLYNELQKDKMAEAYSEIGMKGERRRGKGHDGLYQGLSTATKDTYDALHMQALPPR
notes: Distal anti-CD22 scFv H/L, LAEAAAK, proximal anti-CD19 scFv; leader 1-21 left out; also called CG#c181; c181
B4: tandem CD19/CD22 CAR construct 172 (other)
chain: EIVMTQSPATLSLSPGERATLSCRASQDISKYLNWYQQKPGQAPRLLIYHTSRLHSGIPARFSGSGSGTDYTLTISSLQPEDFAVYFCQQGNTLPYTFGQGTKLEIKGGGGSGGGGSGGGGSQVQLQESGPGLVKPSETLSLTCTVSGVSLPDYGVSWIRQPPGKGLEWIGVIWGSETTYYQSSLKSRVTISKDNSKNQVSLKLSSVTAADTAVYYCAKHYYYGGSYAMDYWGQGTLVTVSSGGGGSEVQLQQSGPGLVKPSQTLSLTCAISGDSMLSNSDTWNWIRQSPSRGLEWLGRTYHRSTWYDDYASSVRGRVSINVDTSKNQYSLQLNAVTPEDTGVYYCARVRLQDGNSWSDAFDVWGQGTMVTVSSGGGGSGGGGSGGGGSQSALTQPASASGSPGQSVTISCTGTSSDVGGYNYVSWYQQHPGKAPKLMIYDVSNRPSGVSNRFSGSKSGNTASLTISGLQAEDEADYYCSSYTSSSTLYVFGTGTQLTVLTTTPAPRPPTPAPTIASQPLSLRPEACRPAAGGAVHTRGLDFACDIYIWAPLAGTCGVLLLSLVITLYCKRGRKKLLYIFKQPFMRPVQTTQEEDGCSCRFPEEEEGGCELRVKFSRSADAPAYQQGQNQLYNELNLGRREEYDVLDKRRGRDPEMGGKPRRKNPQEGLYNELQKDKMAEAYSEIGMKGERRRGKGHDGLYQGLSTATKDTYDALHMQALPPR
notes: Distal anti-CD19 scFv, GGGGS, proximal anti-CD22 scFv H/L; leader 1-21 left out; end of range counted without it; also called CG#c172; c172
B5: tandem CD19/CD22 CAR construct 171 (other)
chain: EIVMTQSPATLSLSPGERATLSCRASQDISKYLNWYQQKPGQAPRLLIYHTSRLHSGIPARFSGSGSGTDYTLTISSLQPEDFAVYFCQQGNTLPYTFGQGTKLEIKGGGGSGGGGSGGGGSQVQLQESGPGLVKPSETLSLTCTVSGVSLPDYGVSWIRQPPGKGLEWIGVIWGSETTYYQSSLKSRVTISKDNSKNQVSLKLSSVTAADTAVYYCAKHYYYGGSYAMDYWGQGTLVTVSSLAEAAAKEVQLQQSGPGLVKPSQTLSLTCAISGDSMLSNSDTWNWIRQSPSRGLEWLGRTYHRSTWYDDYASSVRGRVSINVDTSKNQYSLQLNAVTPEDTGVYYCARVRLQDGNSWSDAFDVWGQGTMVTVSSGGGGSGGGGSGGGGSQSALTQPASASGSPGQSVTISCTGTSSDVGGYNYVSWYQQHPGKAPKLMIYDVSNRPSGVSNRFSGSKSGNTASLTISGLQAEDEADYYCSSYTSSSTLYVFGTGTQLTVLTTTPAPRPPTPAPTIASQPLSLRPEACRPAAGGAVHTRGLDFACDIYIWAPLAGTCGVLLLSLVITLYCKRGRKKLLYIFKQPFMRPVQTTQEEDGCSCRFPEEEEGGCELRVKFSRSADAPAYQQGQNQLYNELNLGRREEYDVLDKRRGRDPEMGGKPRRKNPQEGLYNELQKDKMAEAYSEIGMKGERRRGKGHDGLYQGLSTATKDTYDALHMQALPPR
notes: Distal anti-CD19 scFv, LAEAAAK, proximal anti-CD22 scFv H/L; also called CG#c171; c171
B6: tandem CD19/CD22 CAR construct 173 (other)
chain: EIVMTQSPATLSLSPGERATLSCRASQDISKYLNWYQQKPGQAPRLLIYHTSRLHSGIPARFSGSGSGTDYTLTISSLQPEDFAVYFCQQGNTLPYTFGQGTKLEIKGGGGSGGGGSGGGGSQVQLQESGPGLVKPSETLSLTCTVSGVSLPDYGVSWIRQPPGKGLEWIGVIWGSETTYYQSSLKSRVTISKDNSKNQVSLKLSSVTAADTAVYYCAKHYYYGGSYAMDYWGQGTLVTVSSLAEAAAKEVQLQQSGPGLVKPSQTLSLTCAISGDSMLSNSDTWNWIRQSPSRGLEWLGRTYHRSTWYDDYASSVRGRVSINVDTSKNQYSLQLNAVTPEDTGVYYCARVRLQDGNSWSDAFDVWGQGTMVTVSSGGGGSQSALTQPASASGSPGQSVTISCTGTSSDVGGYNYVSWYQQHPGKAPKLMIYDVSNRPSGVSNRFSGSKSGNTASLTISGLQAEDEADYYCSSYTSSSTLYVFGTGTQLTVLTTTPAPRPPTPAPTIASQPLSLRPEACRPAAGGAVHTRGLDFACDIYIWAPLAGTCGVLLLSLVITLYCKRGRKKLLYIFKQPFMRPVQTTQEEDGCSCRFPEEEEGGCELRVKFSRSADAPAYQQGQNQLYNELNLGRREEYDVLDKRRGRDPEMGGKPRRKNPQEGLYNELQKDKMAEAYSEIGMKGERRRGKGHDGLYQGLSTATKDTYDALHMQALPPR
notes: Distal anti-CD19 scFv, LAEAAAK, proximal anti-CD22 scFv H/L with short linker; leader 1-21 left out; also called CG#c173; c173
B7: tandem CD22/CD19 CAR construct 183 (other)
chain: EVQLQQSGPGLVKPSQTLSLTCAISGDSMLSNSDTWNWIRQSPSRGLEWLGRTYHRSTWYDDYASSVRGRVSINVDTSKNQYSLQLNAVTPEDTGVYYCARVRLQDGNSWSDAFDVWGQGTMVTVSSGGGGSQSALTQPASASGSPGQSVTISCTGTSSDVGGYNYVSWYQQHPGKAPKLMIYDVSNRPSGVSNRFSGSKSGNTASLTISGLQAEDEADYYCSSYTSSSTLYVFGTGTQLTVLLAEAAAKEIVMTQSPATLSLSPGERATLSCRASQDISKYLNWYQQKPGQAPRLLIYHTSRLHSGIPARFSGSGSGTDYTLTISSLQPEDFAVYFCQQGNTLPYTFGQGTKLEIKGGGGSGGGGSGGGGSQVQLQESGPGLVKPSETLSLTCTVSGVSLPDYGVSWIRQPPGKGLEWIGVIWGSETTYYQSSLKSRVTISKDNSKNQVSLKLSSVTAADTAVYYCAKHYYYGGSYAMDYWGQGTLVTVSSTTTPAPRPPTPAPTIASQPLSLRPEACRPAAGGAVHTRGLDFACDIYIWAPLAGTCGVLLLSLVITLYCKRGRKKLLYIFKQPFMRPVQTTQEEDGCSCRFPEEEEGGCELRVKFSRSADAPAYQQGQNQLYNELNLGRREEYDVLDKRRGRDPEMGGKPRRKNPQEGLYNELQKDKMAEAYSEIGMKGERRRGKGHDGLYQGLSTATKDTYDALHMQALPPR
notes: Distal anti-CD22 scFv H/L short linker, LAEAAAK, proximal anti-CD19 scFv; leader 1-21 left out; also called CG#c183; c183
B8: tandem CD22/CD19 CAR construct 182 (other)
chain: EVQLQQSGPGLVKPSQTLSLTCAISGDSMLSNSDTWNWIRQSPSRGLEWLGRTYHRSTWYDDYASSVRGRVSINVDTSKNQYSLQLNAVTPEDTGVYYCARVRLQDGNSWSDAFDVWGQGTMVTVSSGGGGSGGGGSGGGGSQSALTQPASASGSPGQSVTISCTGTSSDVGGYNYVSWYQQHPGKAPKLMIYDVSNRPSGVSNRFSGSKSGNTASLTISGLQAEDEADYYCSSYTSSSTLYVFGTGTQLTVLGGGGSEIVMTQSPATLSLSPGERATLSCRASQDISKYLNWYQQKPGQAPRLLIYHTSRLHSGIPARFSGSGSGTDYTLTISSLQPEDFAVYFCQQGNTLPYTFGQGTKLEIKGGGGSGGGGSGGGGSQVQLQESGPGLVKPSETLSLTCTVSGVSLPDYGVSWIRQPPGKGLEWIGVIWGSETTYYQSSLKSRVTISKDNSKNQVSLKLSSVTAADTAVYYCAKHYYYGGSYAMDYWGQGTLVTVSSTTTPAPRPPTPAPTIASQPLSLRPEACRPAAGGAVHTRGLDFACDIYIWAPLAGTCGVLLLSLVITLYCKRGRKKLLYIFKQPFMRPVQTTQEEDGCSCRFPEEEEGGCELRVKFSRSADAPAYQQGQNQLYNELNLGRREEYDVLDKRRGRDPEMGGKPRRKNPQEGLYNELQKDKMAEAYSEIGMKGERRRGKGHDGLYQGLSTATKDTYDALHMQALPPR
notes: Distal anti-CD22 scFv H/L, GGGGS, proximal anti-CD19 scFv; leader 1-21 left out; also called CG#c182; c182

Target: T1, soluble CD22-Fc (R&D Systems)
Assay: FACS surface staining of transduced JNL cells with CD22-Fc

binding result	Binder
binds	B1
binds	B2
binds	B3
binds	B4
binds	B5
binds	B6
binds	B7
binds	B8

— patent USRE49847 (dated 2024)
